In publication PMC7108717, “Dynamics in the murine norovirus capsid revealed by high-resolution cryo-EM” (PLoS Biology, 2020):

Biological target: the molecule itself
Test: cryo-EM structure; purified virions in EM buffer (10 mM HEPES pH 7.6, 200 mM NaCl, 5 mM MgCl2, 1 mM KCl, 1 mM CaCl2), icosahedral reconstruction and focussed classification of P domain dimers

B1: murine norovirus (MNV-1 strain CW1P3) major structural protein VP1, wild type (natural protein)
chain: MRMSDGAAPKANGSEASGQDLVPAAVEQAVPIQPVAGAALAAPAAGQINQIDPWIFQNFVQCPLGEFSISPRNTPGEILFDLALGPGLNPYLAHLSAMYTGWVGNMEVQLVLAGNAFTAGKVVVALVPPYFPKGSLTTAQITCFPHVMCDVRTLEPIQLPLLDVRRVLWHATQDQEESMRLVCMLYTPLRTNSPGDESFVVSGRLLSKPAADFNFVYLTPPIERTIYRMVDLPVIQPRLCTHARWPAPVYGLLVDPSLPSNPQWQNGRVHVDGTLLGTTPISGSWVSCFAAEAAYKFQSGTGEVATFTLIEQDGSAYVPGDRAAPLGYPDFSGQLEIEVQTETTKTGDKLKVTTFEMILGPTTNADQAPYQGRVFASVTAAASLDLVDGRVRAVPRSIYGFQDTIPEYNDGLLVPLAPPIGPFLPGEVLLRFRTYMRQIDTADAAAEAIDCALPQEFVSWFASNAFTVQSEALLLRYRNTLTGQLLFECKLYNEGYIALSYSGSGPLTFPTDGIFEVVSWVPRLYQLASVGSLATGRMLKQ
notes: major capsid protein VP1 (ORF2) of murine norovirus MNV-1 strain CW1P3, as it stands in infectious virions; N-terminal region, S domain, P domain (P1, P2); modelled from D20 (A-type), S17 (B-type), V30 (C-type); Capsid: 90 dimers (AB and CC) in T = 3 symmetry; also called wtMNV VP1; MNV VP1; copies: 180
- stoichiometry N: 180 VP1 chains in the capsid
